Consider one molecule from patent US5565425A, “Viral infection and proliferation inhibitors” (Snow Brand Milk Products Co., Ltd, priority 1993, dated 1996).

In one assay the test system is HIV (HTLV-IIIB). The experiment in a line: Inhibitory activity against HIV infection and proliferation in MT-4 cells (indirect fluorescence antibody method). The format is cell-based, human immunodeficiency virus (HIV). Conditions: three days, positive control 26.0%. The procedure:
(Method) Cultured supernatant of MOLT-4/HTLV-IIIB cells, a HTLV-IIIB persistent infected strain of HIV, was used as a viral solution. The supernatant was kept at -80° C. Human T cell line MT-4 was used for the test. MT-4 was subcultured in RPMI 1640 medium containing 10% fetal calf serum (FCS). Sample, LF derived peptide, was dissolved in RPMI 1640 medium and one ml of the diluted solution at various concentrations was added to the cells. The inoculated MT-4 test sample was incubated for 60 minutes and infected with HIV at a concentration of moi […]=0.01 and one ml of the cell solution adjusted at a cell density of 3×10^5 cells/ml was added. The cells were cultured for three days : and HIV infected cells were determined with an indirect fluorescence antibody method.
HIV infected cells were determined by the indirect fluorescence antibody method using HIV infected patient serum as a primary antibody. […] HIV infected MT-4 cells cultured without addition of the sample was used as a positive control and cells without addition of viral solution was cultured to make a negative control group.

Assay [1] concerns Human CMV (Tanaka strain). The experiment in a line: Inhibitory activity against human CMV infection and proliferation in HELF cells (fluorescence staining). The note with it: 24 hrs., concentration not given. The format is cell-based, Human cytomegalo virus. Here is the method:
(Method) LF derived peptide was dissolved in 2% serum added MEM medium to give five mg/ml solution, filtered and sterilized to make a stock solution. The stock solution was diluted with 2% serum added MEM medium on use. Samples containing human embryo lung fibroblast cells (HELF cells) were suspended in 2% serum added MEM medium and incubated for 10 minutes. The cells were collected by centrifugation, washed twice with 2% serum added MEM medium and suspended in 2% serum added MEM medium. Human cytomegalo virus [Human CMV (Tanaka strain)] was added, incubated for 24 hrs., fluorescence stained with human CMV positive serum and the adsorption rate of human CMV to the cells was determined.
The results are judged from the numbers of fluorescent stained cells per one cover slip.

Assay [2] has as its system influenza virus A/PR/8/34. Conditions: 100 μl of one mg/ml solution in allantoic cavity three hours before virus; average of five eggs.

B1: Human LF: human lactoferrin, an iron-binding protein secreted in milk (protein, UniProt P02788 20-710, looked up)
Lactotransferrin: GRRRSVQWCAVSQPEATKCFQWQRNMRKVRGPPVSCIKRDSPIQCIQAIAENRADAVTLDGGFIYEAGLAPYKLRPVAAEVYGTERQPRTHYYAVAVVKKGGSFQLNELQGLKSCHTGLRRTAGWNVPIGTLRPFLNWTGPPEPIEAAVARFFSASCVPGADKGQFPNLCRLCAGTGENKCAFSSQEPYFSYSGAFKCLRDGAGDVAFIRESTVFEDLSDEAERDEYELLCPDNTRKPVDKFKDCHLARVPSHAVVARSVNGKEDAIWNLLRQAQEKFGKDKSPKFQLFGSPSGQKDLLFKDSAIGFSRVPPRIDSGLYLGSGYFTAIQNLRKSEEEVAARRARVVWCAVGEQELRKCNQWSGLSEGSVTCSSASTTEDCIALVLKGEADAMSLDGGYVYTAGKCGLVPVLAENYKSQQSSDPDPNCVDRPVEGYLAVAVVRRSDTSLTWNSVKGKKSCHTAVDRTAGWNIPMGLLFNQTGSCKFDEYFSQSCAPGSDPRSNLCALCIGDEQGENKCVPNSNERYYGYTGAFRCLAENAGDVAFVKDVTVLQNTDGNNNEAWAKDLKLADFALLCLDGKRKPVTEARSCHLAMAPNHAVVSRMDKVERLKQVLLHQQAKFGRNGSDCPDKFCLFQSETKNLLFNDNTECLARLHGKTTYEKYLGPQYVAGITNLKKCSTSPLLEACEFLRK
In the case of B1, the “ratio of stained (HIV infected) cells” value in the assay with HIV (HTLV-IIIB) (sample 63 μg/ml) amounted to 17%; with HIV (HTLV-IIIB) (sample 125 μg/ml), 8.6%; in the assay with HIV (HTLV-IIIB) (sample 250 μg/ml) it was 7.3%; with HIV (HTLV-IIIB) (sample 500 μg/ml), 5.8%; in the assay with HIV (HTLV-IIIB) (sample 1,000 μg/ml) it was 3.1%. Moreover, the “Inhibitory rate of human CMV infection” value in assay [1] came to 94.8%. Also, the “Inhibitory rate of infection and proliferation of influenza virus” value in assay [2] was 87.5%.
